How the values were obtained:
[1] = biological target: T1, SARS-CoV-2 wild type receptor binding domain (RBD) (SARS-CoV-2, UniProt P0DTC2); test: crystal structure
[2] = biological target: T1, SARS-CoV-2 wild type receptor binding …; test: SPR

| Binder | binding result [1] | binding result [2] |
| --- | --- | --- |
| nanobody 3-2A2-4 (VHH with 6xHis tag, for crystal structural analysis) (VHH) VHH: QVQLQESGGGLVQPGESLRLSCAASGSISTLNVMGWYRQAPGKQRELVAQITLDGSPEYADSVKGRFTITKDGAQSTLYLQMNNLKPEDTAVYFCKLENGGFFYYWGQGTQVTVST | binds | – |
| nanobody Nb70 (VHH with 6xHis tag, for crystal structural analysis) (VHH) VHH: QVQLVESGGGLVQAGGSLRLSCVASGRTFSRYAMGWFRQAPGKEREFVAVIEWDGGTSYYVDSVKGRFTISRDNAKNTVYLQMNSLKPEDTAVYYCAAGGNQYYSATYSIWNEYDFWGQGTQVTVSS | binds | – |
| VHH72, previously published nanobody (VHH) VHH: QVQLQESGGGLVQAGGSLRLSCAASGRTFSEYAMGWFRQAPGKEREFVATISWSGGSTYYTDSVKGRFTISRDNAKNTVYLQMNSLKPDDTAVYYCAAAGLGTVVSEWDYDYDYWGQGTQVTVSS | – | binds |

— doi:10.1101/2022.04.12.488087 (bioRxiv, 2022)
